Assay results taken from patent publication US20030086946A1.

Biological target: purified human folate receptor (hFR) (human) (UniProt P15328)
Chain of UniProt P15328 (P15328 25-234): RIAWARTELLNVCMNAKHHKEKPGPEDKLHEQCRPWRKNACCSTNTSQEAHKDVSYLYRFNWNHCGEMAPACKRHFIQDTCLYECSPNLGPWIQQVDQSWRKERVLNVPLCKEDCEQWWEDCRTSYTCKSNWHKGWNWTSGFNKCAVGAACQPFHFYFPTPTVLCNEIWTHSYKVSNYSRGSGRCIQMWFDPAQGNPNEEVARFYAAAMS

How did the hFR Binding (percent of wild type) (% of wild type) turn out when “wild-type (native) Clostridium septicum alpha toxin” was run?
Its hFR Binding (percent of wild type) (% of wild type) is 100.
